The record followed here is patent publication US20220064310A1 (DEVELOPMENT CENTER FOR BIOTECHNOLOGY, published 2022).

The target of test [1] is T1, CSF-1R-ECD-human Fc (in house) (human, UniProt P07333 20-512).
T1 construct: In-house fusion; also called CSF-1R-ECD-hFc; CSF1R-ECD-hFc; not shown: human Fc
As to the kind of experiment: ELISA, coated CSF1R-ECD-hFc 1 ug/ml, anti-kappa HRP, one site specific binding fit (GraphPad Prism). How it is done: (§1) To know the binding affinity differences among individual antibodies, ELISA method was used. ELISA plate was coated with 1 μg/ml of CSF1R-ECD-hFc, then add assay antibodies diluted from 50 nM to 1×10⁻⁵ nM (5-10× fold dilution). Assay was measured by adding anti-kappa HRP secondary antibody (1:5000 dilution). Binding curve and KD were determined with GraphPad Prism software using one site-specific binding for nonlinear fit methods. […] This loss of avidity was recovered by back mutations, as evidenced by humanized antibodies B1-Hu, B2-Hu, B1-B1, and B2-B1 clones. (See FIG. 11 and FIG. 12).

For test [2], the target named is T1, CSF-1R-ECD-human Fc (in house). The test can be described thus: ELISA, CSF1R-ECD-hFc coated at 1 ug/ml, anti-kappa HRP, one site-specific binding fit. The method, then:
as §1

For test [3] the target is unchanged. The test can be described thus: ELISA, coated CSF1R-ECD-hFc 1 ug/ml, anti-kappa HRP, OD450. How it is done: as §1
Test [4] has the same target. As to the kind of experiment: ELISA, CSF1R-ECD-hFc coated at 1 ug/ml, anti-kappa HRP. How it is done: as §1

Substitutions are numbered along the chain they refer to.

T1 sequence (P07333 20-512): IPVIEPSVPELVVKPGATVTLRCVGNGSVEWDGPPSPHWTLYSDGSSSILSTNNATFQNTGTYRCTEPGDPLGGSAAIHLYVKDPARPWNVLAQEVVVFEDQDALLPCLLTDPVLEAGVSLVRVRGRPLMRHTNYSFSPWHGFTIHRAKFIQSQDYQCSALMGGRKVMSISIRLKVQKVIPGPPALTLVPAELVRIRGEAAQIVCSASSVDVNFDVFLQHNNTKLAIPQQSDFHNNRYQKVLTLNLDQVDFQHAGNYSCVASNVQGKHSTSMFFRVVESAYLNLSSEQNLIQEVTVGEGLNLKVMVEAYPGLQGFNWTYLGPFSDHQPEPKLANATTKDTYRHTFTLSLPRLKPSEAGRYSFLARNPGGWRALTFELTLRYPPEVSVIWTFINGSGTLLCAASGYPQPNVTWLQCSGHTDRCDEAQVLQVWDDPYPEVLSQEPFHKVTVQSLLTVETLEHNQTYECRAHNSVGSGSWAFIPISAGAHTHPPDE

B1: B1-Hu(IgG4) (antibody, V domains shown)
VH: EVQLVQSGAEVKKPGATVKISCKVSGYSFTGYNMNWVQQAPGKGLEWMGNIDPYYGGTTYNQKFKGKATLTVDKSTSTAYMELSSLRSEDTAVYYCARRGDYSGSSYWYFDVWGQGTLVTVSS
VL: DIQMTQSPSSLSASVGDRVTITCKASDHINNWLAWYQQKPGKAPKLLLYGATSLETGVPSRFSGSGSGTDYTLTISSLQPEDFATYYCQQYWSTPFTFGQGTKVEIK
notes: an IgG1 and an IgG4 form
Take B1: in test [1], the Bmax was 3.19.

B2: humanized AB21 B1-Hu (AB21 VHB1 with Hu AB21 VL) (antibody, V domains shown)
VH: B1 VH
VL: B1 VL
notes: Human IgG from vector pTCAE8-AB21 in FreeStyle 293 cells, kappa light chain; also called heavy chain B1 combined with light chain Hu
In test [2], B2 yielded a dissociation constant Kd of 0.0958 nM.

B3: B1-Hu(IgG1) (antibody, V domains shown)
VH: B1 VH
VL: B1 VL
notes: an IgG1 and an IgG4 form
Take B3: the half-maximal effective concentration (EC50 (read off the curve)) in test [3] was about 0.04 nM.

B4: humanized AB21 B2-Hu (Hu AB21 VHB2 with Hu AB21 VL) (antibody, V domains shown)
VH: B1 VH with T17S, Q38K, M48I
VL: B1 VL
notes: Human IgG from vector pTCAE8-AB21 in FreeStyle 293 cells, kappa light chain
For the molecule B4, the “EC50 (read off the curve)” value in test [3] is about 0.08 nM. This molecule returned a Bmax in test [1] of 3.17.

B5: humanized AB21 B1-B1 (AB21 VHB1 with AB21 VLB1) (antibody, V domains shown)
VH: B1 VH
VL: B1 VL with V15L, Y49S
notes: Human IgG from vector pTCAE8-AB21 in FreeStyle 293 cells, kappa light chain; also called heavy chain B1 combined with light chain B1
B5 returned a Kd in test [2] of 0.0558 nM.

B6: humanized AB21 Hu-Hu (Hu AB21 VH with Hu AB21 VL), the initial humanized antibody (antibody, V domains shown)
VH: B1 VH with K67R, A68V, L70I, V72A, K74T, S77D, R98T
VL: B1 VL
notes: Human IgG from vector pTCAE8-AB21 in FreeStyle 293 cells, kappa light chain (anti-kappa HRP detection); also called heavy chain Hu combined light chain Hu
For the molecule B6, the “fold lower affinity than the original mouse antibody (M-M)” value in test [4] was about 1000 fold. Moreover, in test [2], the dissociation constant Kd was found to be 83 nM.

B7: M-M(IgG4) (antibody, V domains shown)
VH: EVQLQQSGPELEKPGASVKISCKASGYSFTGYNMNWVKQSNGKSLEWIGNIDPYYGGTTYNQKFKGKATLTVDKSSSTAYMQLKSLTSEDSAVYYCARRGDYSGSSYWYFDVWGAGTTVTVSS
VL: DIQMTQSSSYLSVSLGGRVTITCKASDHINNWLAWYQQKPGNAPRLLISGATSLETGVPSRFSGSGSGKDYTLSITSLQTEDVVTYYCQQYWSTPFTFGSGTKLEIK
notes: an IgG1 and an IgG4 form
B7: in test [1], the Bmax came to 3.2.

B8: AB21 M-M (mouse heavy chain variable region with mouse light chain variable region, recombinant) (antibody, V domains shown)
VH: B7 VH
VL: B7 VL
Molecule B8 showed a Kd in test [2] of 0.0936 nM.
